{"source": "patent US20220362348A1", "about": "“LACTOFERRIN, DERIVED PEPTIDE THEREOF AND METHOD THEREOF FOR INHIBITING AND/OR ALLEVIATING LIPID SYNTHESIS” (RENORIGIN INNOVATION INSTITUTE CO., LTD., priority 2021, published 2022)", "molecules": {"B1": {"name": "lactoferrin (protein)", "chain": "APRKNVRWCTISQPEWFKCRRWQWRMKKLGAPSITCVRRAFALECIRAIAEKKADAVTLDGGMVFEAGRDPYKLRPVAAEIYGTKESPQTHYYAVAVVKKGSNFQLDQLQGRKSCHTGLGRSAGWIIPMGILRPYLSWTESLEPLQGAVAKFFSASCVPCIDRQAYPNLCQLCKGEGENQCACSSREPYFGYSGAFKCLQDGAGDVAFVKETTVFENLPEKADRDQYELLCLNNSRAPVDAFKECHLAQVPSHAVVARSVDGKEDLIWKLLSKAQEKFGKNKSRSFQLFGSPPGQRDLLFKDSALGFLRIPSKVDSALYLGSRYLTTLKNLRETAEEVKARYTRVVWCAVGPEEQKKCQQWSQQSGQNVTCATASTTDDCIVLVLKGEADALNLDGGYIYTAGKCGLVPVLAENRKSSKHSSLDCVLRPTEGYLAVAVVKKANEGLTWNSLKDKKSCHTAVDRTAGWNIPMGLIVNQTGSCAFDEFFSQSCAPGADPKSRLCALCAGDDQGLDKCVPNSKEKYYGYTGAFRCLAEDVGDVAFVKNDTVWENTNGESTADWAKNLNREDFRLLCLDGTRKPVTEAQSCHLAVAPNHAVVSRSDRAAHVKQVLLHQQALFGKNGKNCPDKFCLFKSETKNLLFNDNTECLAKLGGRPTYEEYLGTEYVTAIANLKKCSTSPLLEACAFLTR", "modifications": "bovine lactoferrin"}}, "test_system": "Human sebocytes", "assay": "Neutral fat detection (Nile red staining, fluorescence intensity) in linoleic acid-induced sebocytes", "format": "cell-based", "settings": "for fluorescence intensity (lipid content, Nile red): FIG. 1 D, two days, negative control about 1.0", "method": "Human sebocytes (Cat. No. 36079-01, Celprogen, Torrance, Calif., USA) were cultured in Dulbecco's Modified Eagle Medium (DMEM): Nutrient Mixture F-12 (DMEM/F12) purchased from Thermo Fisher Scientific Limited (Barrington, Ill., USA), 10% fetal bovine serum (FBS) purchased from Gibco, Grand Island, N.Y., USA and penicillin/streptomycin (100 IU/50 […]), incubated at 37° C. in the 5% CO2 atmosphere.\nHuman sebocytes were implanted in 24- or 96-well plates. After 24 hours of culture, the cells were divided into a negative control group, a positive control group and an experimental group. […] The treated human sebocytes were cultured for two days. Human sebocytes were fixed with 4% formaldehyde at room temperature. After 60 minutes of fixation, the cells were washed with PBS and stained with Nile Red solution (1 μg/ml in PBS) at 37° C. for 15 minutes. Next, the cells were washed and observed under a fluorescent microscope. Fluorescence intensity is measured with fluorometer Spectra Max i3.", "data": [{"molecule": "B1", "values": [{"measurement": "lipid content reduced compared with positive control group (LA)", "setting": "FIG. 1, 0.1 mM LA + 100 to 400 μg/mL lactoferrin", "result": 25, "unit": "%"}, {"measurement": "fluorescence intensity (lipid content, Nile red)", "setting": "0.1 mM LA + 100 μg/mL lactoferrin", "result": "about 1.5"}, {"measurement": "fluorescence intensity (lipid content, Nile red)", "setting": "0.1 mM LA + 200 μg/mL lactoferrin", "result": "about 1.5"}, {"measurement": "fluorescence intensity (lipid content, Nile red)", "setting": "0.1 mM LA + 400 μg/mL lactoferrin", "result": "about 1.5"}, {"measurement": "concentration dependence of inhibition of LA-induced lipid content", "setting": "FIGS. 1-4, lactoferrin 100-400 μg/mL, peptides 25-100 μg/mL", "result": "dose-dependent manner"}]}]}
